The series in a line: soluble fraction after stress (log2 fold change); higher = more stays soluble; pooled small domains, quantitative proteomics. The following applies: stress: 50 degC. In a few lines: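 Quantitative proteomics served as the high-throughput read-out for pooled custom libraries of small protein domains. Each was stressed at 50°C. Aggregation propensity is expressed as the base-two log fold change in soluble protein after stress. A higher value means a larger share of the protein remains in solution.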
In the case of “HMDLKHNQITMRELLRNKQAYLLLYKEFPMFMTPAILQNIRPLTLQQIIQMVRPYISRPKLNMLLEQLENI”, the “soluble fraction (log2)” value is -0.124.

Turning to “HMGSLAVVPSLTGKTLQEAQSKAADYGLALEIEGYVASTAVDYGRIVSQSPDAGFSVKSGSSVKVSVSAG”, the “soluble fraction (log2)” value was 0.117. As for “HMQMSPREKMIYSFIESHPGTKSGEIAEKLNVPLPTVKRILSEMVSGNFIAKHGSGIGTNYSTEK”, the “soluble fraction (log2)” value turned out to be 0.233. “HMGMTRPLFVTDPGLVRIGLVSPIFEKLGSGKLSPQLFDQVKEDPPEQTVFDGVEFARETGIDGVIGFG”: the “soluble fraction (log2)” value is -0.124. Then “HMPGRKKLAIIYKNDYIGAFNLADSYRDSYEVSMYAFPKKVGKLLNRLELQGFNAYVIYDKDNEENNFNTI”, with -1.65; and “HMQKLLGPFEDFVKIKLDKYPDTKAAQMHDWLKEHYPDFPEVTPKTVYNFVMYVRQRHNIPIPD”, with -0.0276; and “HMKVEFTPAYLKKFKANKNAWKFYEAQTNTYKKQSAWYVISAKQEETRLRRLDLLIYDSENGIHIKPLRR”, with -2.6. Under “HMNLVELKHAEEFNTLIIQDIGGRMKPAHTLASELVRKVFHNDDFNGIDPRKVFLSIIENSKVWFNVPFI” stands 0.119; under “HMFTEPQKLVKRILNMLGHRYDDASIQARSDFQASNNYHKVQVKKKRESMEEYTAWLEEMYDAYRIN”, -1.43. Then “HMARRKRDIDSDINVKVFEHWLDNLDSASRESFSAFAEETFSPIQVYLYAKFLGYESSIIAVDHWVAVAYP”, with 0.104; and “HMNGLNISYRMDGENVVETIVFPDATMIRTIAPNGVMTIKTIEDGSVSTSELKADYKLYKKIYESQY”, with -0.262. In the case of “HMNVSVSITKELQVYINDERISSSALESTLKSKLAGIENPTIILRAEEGVPIEKAVNVMDIANRNRYKIVL”, the “soluble fraction (log2)” value was -0.522.

As to “HMDAVTYAKGSSGETVREIQQLLLDWGYYSGEVDGIFGSRTEDAVEYFQRKNGLTVDGKVGPATLEALGIS”, the “soluble fraction (log2)” value was -0.0183.

Turning to “HMDASFTYSLETHPAGVLVRVDGLEYETPFSILLPQGVHRLEVAGEERFFYLSETTHQFLEID”, the “soluble fraction (log2)” value was -0.901. Then “HMEAMITEVKRINYGLISDISKSLDPFKSEGGHIIVDKRTNTFILTDLRANIEKMLWSIEIMD”, with -0.111; and “HMQNEQIAFSKFLQEVDSGRVVQVEIQGNNIKGILSDGSKFYTYSPNYPELVGKLSEKGVNIVASPVE”, with 0.0802. Take “HMGSLKEKIVLLEKLYQQNPSEEIKLLLINTYQLNHQYIQARKLFFTLTPEQKEKLPLASEFLIFL”: the “soluble fraction (log2)” value was -0.871. Take “HMLKSGSAVAQARDVILEKGVPVHINEILDALGKGDTREAKASLTSSLAAYVRRGEIFTRPAPNTFGLVEL”: the “soluble fraction (log2)” value is -0.372. In the case of “HMNASTVTLENFEGAKYDDVYGKYDYQFSVTYEQTDKYESGVIISQKPEAGTKIIKGSQVSLVVAT”, the “soluble fraction (log2)” value came out at 0.0657. Under “HMNEQKVSSLLTPRQLAFIDEYLIDFNGAQAAIRAGYSHKTAGPQAARLLVNVNISRMIAERIEARNK” stands -1.7; under “HMAQVSDTGAIAKIVADAIAANPKQVQQYLDGNEKVLMYLVGQVMKLSKGKANPPMVIQLLKEQLG”, -0.0543. Turning to “HMSESLRDLVLSLIPEDGSTIGNRALITRLREDLPDLTDEDYHEVRDQLIAEGVLAKGRGQGGSVARANG”, the “soluble fraction (log2)” value is 0.205. Under “HMLAQVSDEGPIRAMVEAVMARSTQQLEDYKNGKVKLRQYFFGEVMKAAKGKANPTVINKLLDEMLPETL” stands 0.255; under “HMSAAELFEERQRQYLRGRKSTKNIADNHGTIILRAGETITDQAIDKAKVAGKLVELVMNNE”, 0.142; under “HMKRITKKQLSQQLEQFFSSQPGKKLTLKDIFRALHLDTHPLKMLAMDIMEEMAWDDFITKKGENAYQLNT”, -0.729. “HMYFFNTFTQRLFDNPELTQEEAIRQMYPGISGVQTAEKLQENFMADVYIQAAIRQEIVVQLIR”: the “soluble fraction (log2)” value was -0.529. Turning to “HMDINMELGKNIRRLRKLNNLTQQSLANQMNRSKTLIALWEKGERDPSSIDLKRLSEIFNVRADDIIG”, the “soluble fraction (log2)” value is -0.689. “HMGSIMIIVLKENAPQQAAEKLMKEIRAKGLQIDVSKGTRKTVLGLVGDTSVIDMEHVQGYDYVDKVLRV”: the “soluble fraction (log2)” value was 0.0715. Under “HMLENIVFTNKFKNKRLDVLLVDMKLVSSRQKAVSLIMRGNVFVEEERADKPGKIIKLNQTISLKK” stands -2.6; under “HMATLQLPVPKITLYPGELIRSDHLTDQRFNARALYHSAVYKSREDIVGKVARRTLLPGQPIPVNALR”, -0.057; under “HMNEQVAVVSGSQVNVRSGPGTTSAVVGQVSKGDNLPVLNQSGDWYQIKLPGGNAGWVAGWLVSLRPTT”, -0.0873. Under “HMQMEYEKAIAYILDKIKSGELSIGSKLPAERVIADTLHIGRNSTREALSILHGMGMVDRVHGSGNYISEH” stands -0.421. Then “HMGPASTGAHQLGLKPGDEVTHRAWGEGVVTSTTGEGDRAEAVVDFDAVGEKRLLLAWAPLER”, with 0.00864; and “HMGSATAPDLKGLTYEQAQTKAEDAGYNIEKGEDVYDNDVEKGKVASQDPEAGAEAKEGSVITVNISK”, with -0.0349.

Take “HMYVTGSAIRRLREKRKLTQAQLAAALSVSDKTVSKWETARGLPDITLLEPLARALQVSVPELLSGEEV”: the “soluble fraction (log2)” value was -0.255. Consider “HMDAQLRVPDLTPYNYSELKENTSLYEGFTIEVVEERSTGDYAAGTVLDQDPKADTLIQDGDSTVIKLVIA”, for which the “soluble fraction (log2)” value is -0.12. Then “HMDVNSRIRQFLKKMKITVQTFESSIGKTNGYIAHTKSPTAGVLAEIAKVYPDLNLDWLITGEGEMLKN”, with -0.468. Regarding “HMGIDVSAFSDTALEVLRLQAAGYTTREIAQQLHITQRTVKYHASENYRKLDARNLVDAVQIAQSLHI”, the “soluble fraction (log2)” value is -1.41.

Consider “HMEGDAFAFTGDIQKDLLSITAVHPMRREAVDALIAKAGASWAIVEKLLAHGELTEAKHDGHLFYLRKF”, for which the “soluble fraction (log2)” value is -0.81. Take “HMGRMTRKDRALATDLYGRIVGNVDDFHEGRIDYETFSERQRGLWTTLDAAGPEVKRAVLADIRERL”: the “soluble fraction (log2)” value is -0.187.

With “HMGLPPIATGVNDNMSFSQAFAAARAEVGAGGAFEWHGRVYGTYYKNEWDGMSAQERHDFEIAAIRGS”, the “soluble fraction (log2)” value was -0.166.

In the case of “HMYELSDTEWKIIEQVGLGASNKEIAASLHFSEGTIRNYLSVILDKLSLRDRTQLAILYVKMN”, the “soluble fraction (log2)” value is -0.058. Under “HMAEVPSLIGKSLDAAKQAIIDAGFKVGSVSYDNSDSYGKGQVMWQQYEPSTKVKKGSSISIKVSKGS” stands 0.00591. As to “HMIEQEQAFLEQVLKKYSQEELVLTVGSRTLVKYSAGQLERLLEHYPHVRLASSPVNGEAGFLLSRG”, the “soluble fraction (log2)” value was -0.0933. Under “HMNDAEEKAEAIEGVKNFMANMEKTDIDFKSKESVLLEQVEEIRKNYPVAQWPVIVKQLYNNIGRL” stands 0.159; under “HMLTALTDREEEILVLLAHNLSNKEIAKRLNLSVNTVRNHTSHIYEKLNVTSRRKAITLAQSLHLLPP”, -1.35; under “HMAARKDLIAGEDAEGRLDAWLAAALDGEFSRNRVKALIEQGAVAINDVAVTEPKRKIRPGDRLSIVLPEP”, 0.339.

With “HMSRWHEFLNKSEDGMKELDEQNQKVLTLLILQRFYQTPFQAKEDEEFYREFFERLSSVNEILG”, the “soluble fraction (log2)” value amounted to 0.0126. Then “HMVKLSVGDIVQFAGGPHYVSSSAAKPASSPTAGPAKVTMIYQGAKHPYHIVHTTSASTVWGWVDADKVVK”, with -0.245. On to “HMIAALEGKQAMVLDQVSLHHGQVKLGGEVWTARPLNDQDVYEPGDRVTVMRIDGATAVVWRN”, for which the “soluble fraction (log2)” value was -0.281. For the sequence “HMTGDISRALDQLPADMRTVLILYALEKQRYEDIAQITGVSVGTVKSRLNRARQKLAAILANQREQNE”, the “soluble fraction (log2)” value was -0.488.

Regarding “HMEKKKVPEVAGQDEAAARNVMTNSGFVVDVEQKEDDNVPAGKVITTAPAGGVEVVEGTKIILYVSKGSN”, the “soluble fraction (log2)” value was determined as 0.113. Under “HMKKSGFFSAGDRIQLTDNKGRQYSFNITEGKEFHTHQGFIKHDDLIGMPEGSVVSINSTTGVVQKFMAF” stands -0.164; under “HMFTNSTSSRQLTNSDDTLRLNISSQTRQMLPNGQPFGGSLSGKLLLVIYGATTRSIPAQTTPEKIVV”, -0.134; under “HMDAAYVYVIGTRVNQRAGPSTSNAVMGVLSEGTRVETLRDEGQWTQIRSNFGTGWMSSSFLSSVAP”, -1.55. Then “HMLNAPFGFRIEDDTLIPIPEEAKVVRQIFRYYLQGMGFGKIAQELNGQDVPGKPWGKERIKYILSNEKYI”, with -2.09.

Turning to “HMGPPAVGAKLQVLRQARKLSLDELSRRAGVSKSMLSQVERNLANPTVAVLWRLATALGVGLADFLSP”, the “soluble fraction (log2)” value is -1.39. On to “HMITERVPVPDLTGMPLMEAIKTLNSSKLQYQVVGSVIEGDENRIIDQTPKPDIMVSEKSIVLLYLETYRG”, for which the “soluble fraction (log2)” value is -0.509. Then “HMFKINNIIVSGLSEKSNLQTSEEIKNILFENIFFIKKDVLFKILEKNNLINSFEIKKIYPDTIEVKIKKT”, with 0.153.

As to “HMTKAEVLLDLQQRIISEEFLPGSWLVERDLSSEYGLSRTPIREILNKLVILGLISVQKNRGYQVR”, the “soluble fraction (log2)” value was -1.43.

For “HMNRIARRELMEQLFADNKITTQEQLQQLLRAEGVEVTQATISRDMRILNIVKVSDQNGNTYYKQMK”, the “soluble fraction (log2)” value is -0.15. With “HMNRTKQIYNELLFRLDQGVYPPESKFPSESQLADEFSVSKVTMNKIVSMLASSGRLSRGVRGAGTFVSSP”, the “soluble fraction (log2)” value was -0.775. Then “HMEAGLRMPEQLTAFSALALLQKVRDSGPLTDAQKEQLDADVLRIEASHFGKADREALELEEILKQWLSRV”, with -0.135. Under “HMGLSIPLMGAKASDIEISTLNDEVQRKLKIIVKEQGHENLQRVVPLPSEAREIQAHFINGRLHLR” stands -0.0466; under “HMEQEVLDLLFDAIRSLPEKYRRLFDMSFEQGLKNAEIAALLHVSESAVKKQKASMIQQLRDDLLRKTGKD”, -0.693; under “HMEKYIVEAEEQGKRLDMYISSKDEELTRTSAQRLIEQGDILVNNKKVKVAYKVSEGDIIAVEKQ”, 0.0849. Under “HMSMEKNWVPSEDVIEILTRAGMNENFIRELIPEFIIYWSERKDVLISYDSKFIEHARLKWAQHNAE” stands 0.176; under “HMNAVYAEERRAYILAALEKRGTVHSYELAEQMGVSRETIRRDIMELSNRGLLVKTHGGAIST”, -0.686.

The values are drawn from the domain aggregation screens of Martell et al. (2025).
